According to paper PMC5941273, “DNA-binding miniproteins based on zinc fingers. Assessment of the interaction using nanopores† †Electronic supplementary information (ESI) available. See DOI: 10.1039/c7sc05441f”:

T1: gaga (GAGA Cys2-His2 zinc finger peptide) (UniProt Q08605 337-367)
T1 chain: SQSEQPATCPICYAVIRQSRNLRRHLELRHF

B1: AT·GAG (= cat·AT·GAG) (dsDNA)
DNA 1: CGCGTCATAATTGAGAGCGC
DNA 2: GCGCTCTCAATTATGACGCG
B2: cg·GAG (dsDNA)
DNA 1: CGCGTCATCAGCGAGAGCGC
DNA 2: GCGCTCTCGCTGATGACGCG

What was measured:
gaga-Hk-gaga = gaga-Hk-gaga (UniProt Q08605); assay: fluorescence anisotropy; conditions: no calf thymus DNA; Zn2+; EMSA: 18 mM Tris-HCl pH 7.5, 90 mM KCl, 1.8 mM MgCl2, 0.2 mM TCEP, 9% glycerol, 0.11 mg/mL BSA, 2.2% NP-40, 0.02 mM ZnCl2, 20 C, 75 nM DNA; FA: 20 mM Tris-HCl …
gaga-Hk-gaga, sequence (Q08605 other isoform, or with tags, fused parts or gaps): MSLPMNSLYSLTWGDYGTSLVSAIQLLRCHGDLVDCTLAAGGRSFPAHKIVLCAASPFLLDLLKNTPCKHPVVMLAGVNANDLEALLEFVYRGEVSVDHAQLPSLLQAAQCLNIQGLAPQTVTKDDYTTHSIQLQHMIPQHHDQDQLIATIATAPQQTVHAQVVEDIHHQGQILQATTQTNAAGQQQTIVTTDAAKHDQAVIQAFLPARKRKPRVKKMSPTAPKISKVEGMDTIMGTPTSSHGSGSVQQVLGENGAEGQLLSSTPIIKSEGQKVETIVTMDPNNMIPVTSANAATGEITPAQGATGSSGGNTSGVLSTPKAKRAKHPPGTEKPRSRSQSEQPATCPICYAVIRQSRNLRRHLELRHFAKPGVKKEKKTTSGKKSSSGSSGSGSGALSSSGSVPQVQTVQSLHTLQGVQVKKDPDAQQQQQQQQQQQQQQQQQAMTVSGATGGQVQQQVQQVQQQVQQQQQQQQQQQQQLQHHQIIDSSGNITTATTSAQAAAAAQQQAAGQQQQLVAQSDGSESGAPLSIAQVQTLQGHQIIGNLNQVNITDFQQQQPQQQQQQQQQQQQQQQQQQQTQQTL

gaga-Hk = gaga-Hk (UniProt Q08605); assay: fluorescence anisotropy; conditions: Zn2+, EMSA: 18 mM Tris-HCl pH 7.5, 90 mM KCl, 1.8 mM MgCl2, 0.2 mM TCEP, 9% glycerol, 0.11 mg/mL BSA, 2.2% NP-40, 0.02 mM ZnCl2, 20 C, 75 nM DNA, FA: 20 mM Tris-HCl …
gaga-Hk, sequence (Q08605 other isoform, or with tags, fused parts or gaps): as above

Hk-gaga = Hk-gaga (UniProt Q08605); assay: fluorescence anisotropy; conditions: Zn2+, EMSA: 18 mM Tris-HCl pH 7.5, 90 mM KCl, 1.8 mM MgCl2, 0.2 mM TCEP, 9% glycerol, 0.11 mg/mL BSA, 2.2% NP-40, 0.02 mM ZnCl2, 20 C, 75 nM DNA, FA: 20 mM Tris-HCl …
Hk-gaga, sequence (Q08605 other isoform, or with tags, fused parts or gaps): as above

[1] = target: T1, gaga (GAGA Cys2-His2 zinc finger …); assay: EMSA; Zn2+; 1000 nM; EMSA: 18 mM Tris-HCl pH 7.5, 90 mM KCl, 1.8 mM MgCl2, 0.2 mM TCEP, 9% glycerol, 0.11 mg/mL BSA, 2.2% NP-40, 0.02 mM ZnCl2, 20 C, 75 nM DNA; FA: 20 mM Tris-HCl pH 7.5, 100 mM NaCl, 0.02 mM ZnCl2, 20 C, 25 nM DNA; nanopore: 100 mM NaCl, 0.02 mM ZnCl2, 20 mM Tris-HCl pH 7.5, 22 C

Row | Molecule | Kd (gaga-Hk; no calf thymus DNA) [nM] | binding result [1] | also measured
1 | GAGCTCTCAATTGAGAGCGCG (double strand) [TMR-CTC·AT·GAG] |  |  | Kd (gaga-Hk-gaga): 35 nM
2 | CGCGTCATAATTGAGAGCGC (double strand) [TMR-AT·GAG] | 41 |  | Kd (gaga-Hk; 50 uM bp calf thymus DNA): 58 nM; Kd (Hk-gaga; 50 uM bp calf thymus DNA): 92 nM; Kd (Hk-gaga; no calf thymus DNA): 44 nM
3 | CGCGTCATCAGCGAGAGCGC (double strand) [TMR-cg·GAG] | 100 |  | 
4 | B1 |  | no binding | 
5 | B2 |  | no binding | 
